These are literature values, as cited in PMC4301871, “WW Domains of the Yes-Kinase-Associated-Protein (YAP) Transcriptional Regulator Behave as Independent Units with Different Binding Preferences for PPxY Motif-Containing Ligands” (PLoS ONE, 2015).

Read-outs that look alike come from different tables or passages of the source.

Data set [1] has as its target p53BP2 (Homo sapiens).
In data set [2] the target is p53BP2 (Homo sapiens). The source holds these as a separate data set.

Sequence of YAP WW2 (P46937 227-266): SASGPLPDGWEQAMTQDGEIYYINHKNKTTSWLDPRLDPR
Sequence of YAP WW1 (P46937 168-207): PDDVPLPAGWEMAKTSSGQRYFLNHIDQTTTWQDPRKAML

One may read the Kd as a measure of binding affinity in units of concentration. As for YAP WW2 (from UniProt P46937), in data set [1], the Kd is 12 µM.

YAP WW1 (from UniProt P46937): the equilibrium dissociation constant (Kd) in data set [2] is 1.8 µM.
